Test results published in patent US20150045310A1.
Where no end group is shown, it is not given here. eCPX = enhanced circularly permuted OmpX display scaffold; linker = not defined here

Legend:
[1] = biological target: A1 (biotinylated pro-survival Bcl-2 family protein) (UniProt Q16548); experiment: apparent Kd, bacterial surface display and flow cytometry
[2] = biological target: A1 (biotinylated pro-survival Bcl-2 family protein) (UniProt Q16548); experiment: flow cytometry of E. coli displaying the peptide on eCPX, biotinylated target + streptavidin-PE; apparent Kd

B1: Bim BH3 14-mer variant M2-2 displayed on eCPX (peptide, not shown: large carriers; small tags and cut ends)
peptide: WVAQLLRRIGDEVN-{linker-eCPX}
modifications: reading uncertain; also: printed as Trp-Val-Ala-Gln-Leu-Leu-Arg-Arg-Ile-Gly-Asp-Glu-Val-Asn
fold affinity improvement against wild-type Bim 14-mer [1]: 3 fold
Kd [2]: 9.99 nM

B2: wild-type Bim BH3 14-mer peptide (residues 147-160) displayed on eCPX (peptide, not shown: large carriers; small tags and cut ends)
peptide: WIAQELRRIGDEFN-{linker-eCPX}
modifications: reading uncertain
Kd [2]: 26.9 nM

B3: Bim BH3 14-mer variant X2-8 displayed on eCPX (peptide, not shown: large carriers; small tags and cut ends)
peptide: WLAQLLRRYGDEFN
modifications: also: displayed as fusion to eCPX scaffold (letters not given here)
Kd [2]: 40.5 nM

B4: Bim BH3 14-mer variant X2-3 displayed on eCPX (peptide, not shown: large carriers; small tags and cut ends)
peptide: WVAQWLRRWGDEFN
modifications: also: displayed as fusion to eCPX scaffold (letters not given here)
Kd [2]: 30.2 nM

B5: Bim BH3 14-mer E151Q (pseudo-wild-type) displayed on eCPX (peptide, not shown: large carriers; small tags and cut ends)
peptide: WIAQQLRRIGDEFN
modifications: not fully specified
Kd [2]: 29.6 nM

B6: Bim BH3 14-mer variant M2-4 displayed on eCPX (peptide, not shown: large carriers; small tags and cut ends)
peptide: WLAQLLRRIGDEIN-{linker-eCPX}
modifications: reading uncertain; also: printed as Trp-Leu-Ala-Gln-Leu-Leu-Arg-Arg-Ile-Gly-Asp-Glu-Ile-Asn
fold affinity improvement against wild-type Bim 14-mer [1]: 6 fold
Kd [2]: 4.18 nM
